Test results as given in publication PMC8864064, “Molecular Chaperone BRICHOS Inhibits CADASIL-Mutated NOTCH3 Aggregation In Vitro” (Frontiers in Molecular Biosciences, 2022).

B1: NOTCH3 EGF1–5 wildtype (truncated human Notch3 extracellular domain, first five EGF-like repeats, amino acids 1–234) (domain or fragment)
chain: not shown
notes: signal peptide in the construct; human NOTCH3 extracellular domain, first five EGF-like repeats, amino acids 1–234; codon-optimized construct derived from Duering et al., 2011; also called N3 EGF1–5 WT; WT N3 EGF1–5
B2: Recombinant human Bri2 BRICHOS domain (domain or fragment, UniProt Q9Y287 137-231, looked up)
chain: FADSDPANIVHDFNKKLTAYLDLNLDKCYVIPLNTSIVMPPRNLLELLINIKAGTYLPQSYLIHEHMVITDRIENIDHLGFFIYRLCHDKETYKL
B3: NOTCH3 EGF1–5 R133C (CADASIL-mutated truncated human Notch3 extracellular domain, amino acids 1–234) (domain or fragment)
chain: not shown
notes: signal peptide in the construct; human NOTCH3 extracellular domain, first five EGF-like repeats, amino acids 1–234, with the CADASIL mutation R133C (in EGF3); codon-optimized construct derived from Duering et al., 2011; R133C is a common CADASIL mutation found in patients; also called N3 EGF1–5 R133C; R133C mutant

Key:
[1] = target: the molecule itself; assay: native gel or EMSA; N3 EGF1–5 proteins at 30 µM in 1 × PBS, 37°C for 80 h with and without Bri2 BRICHOS at 1:1 and 1:2 molar; native loading buffer free of DTT and SDS; 6% native PAGE
[2] = target: B3; assay: cell-based or functional assay

Row | final aggregation intensity of R133C by turbidity at 360 nm, 37°C, 10 µM, BRICHOS at 1:1 molar ratio [2] [% reduction] | Binder | binding result [1]
1 |  | B1 | binds
2 | ≤ 50 | B2 | 
3 |  | B3 | binds
